“Also recorded” adds a separate entry of the source.
Columns and labels:
neutrophils = assay: Neutrophil migration into the peritoneum after intraperitoneal injection; type: in vivo, C57BL6 mice; conditions: 50 μg intraperitoneal, 8 h following injection, vs GLI-2 and PBS controls
Procedure: (A). Purified neutrophils were placed in the upper chambers of a 24-well chemotaxis microchamber plate with pore size of 3 μM or 5 μM. Lower chambers contained RPMI medium with various concentrations of recombinant DEK, as indicated. The bar labeled “control” contained only media in the lower chamber. The bar labeled “DEK up” had DEK in the upper chamber and media in the lower chamber. […] (B). Groups of mice received intraperitoneal injections of either PBS or 50 μg of either LPS, recombinant DEK, or a recombinant protein control prepared in parallel to DEK in baculovirus (an isoform of human GLI-2). Twenty mice were tested in each of the four groups. Half of the mice in each group were sacrificed after 4 hours (white bars), and the other half at 8 hours (black bars) after intraperitoneal injection, and then subjected to peritoneal lavage. The bars represent the average number of neutrophils migrating into the peritoneum of each group of mice.
In order to confirm that DEK is a chemoattractant, an in vivo murine model was used. Four groups of twenty 4-6 week old male C57BL6 mice were injected intraperitoneally with 50 μg of DEK, 50 μg of a recombinant control protein also prepared in baculovirus (GLI-2) (See, e.g., Smith et al., J Virol 75, 2301-13 (2001)), 50 μg of LPS, or PBS alone.

MDM and HeLa cells = assay: Uptake of recombinant DEK by cells; type: cell-based, human; conditions: MDM (12-day) and HeLa cells
circular SV-40 DNA = assay: Topology assay with His-DEK and GST-ALY; type: biochemical; conditions: in the presence of 1 U topoisomerase I
Procedure: 10 ng (0.003 pmol) of circular SV-40 DNA was incubated with 2, 4 or 8 pmol of HIS-DEK (DEK) or GST-ALY (ALY) or either 2 or 4 pmol HIS-DEK and 2, 4 or 8 pmol GST-ALY in the presence of 1 U topoisomerase I. As a control for the functionality of topoisomerase I, SV-40 DNA was incubated either with or without topo I in the absence of GST-ALY and DEK. After 1 h at 37° C., the samples were treated with Proteinase K, and the DNA was purified and analyzed by agarose gel electrophoresis (0.8% at 2V/cm) and SybrGold staining.

[1] = system: purified neutrophils (PMN); assay: In vitro migration assay with purified neutrophils; type: cell-based, human; conditions: various concentrations of recombinant DEK in lower chamber; 79 nM vs control
Procedure: Purified neutrophils (PMN) were treated with IL-8 (50 nM), the CXCR2 small molecule inhibitor SB225002 (3 μM), DEK (79 nM), IL-8 plus SB225002, or DEK plus SB225002 for 5 min at room temperature before and then during the migration assay. After 1 h, the number of fluorescently labeled migrating cells in the lower chamber was determined at 485 nM/535 nm wavelengths by Tecan GENios (Phenix, Austria). […] The results are expressed as the average fold increase in the number of cells migrating toward DEK compared to control wells containing medium only. White blood cells were isolated from venous blood from healthy donors as described above, and were depleted of monocytes by adherence to plastic for 2 h as described in the Cell Preparation section. […] The cells were washed and resuspended at 1×10^6 cells/ml in serum-free RPMI medium, and 1×10^5 labeled cells in 100 μl were added to the upper chamber of a 24-well Transwell chemotaxis insert with pore size of 3 μm or 5 μm (Corning, N.Y.). The lower chambers contained serum-free RPMI medium alone, recombinant DEK made in baculovirus, or a deletion mutant of the β form of human GLI-2 (See, e.g., Smith et al., J Virol 75, 2301-13 (2001)) produced in baculovirus as the control protein. After 30 min to 1 h, the number of fluorescently labeled migrating cells in the lower chamber was determined at […] wavelength using a Tecan GENios plate-reader (Phenix, Austria). The results were expressed as the average fold increase of the number of cells migrating toward lower chambers containing DEK divided by the number of cells migrating toward the control wells (medium alone). Forty ml of venous blood was collected from healthy volunteers into a 50 ml sterile syringe containing a mixture of 7 ml 0.25 M Citrate (0.17 M NA Citrate and 0.083 M Citric Acid) and 6% Dextran in PBS buffer. The blood was incubated for 30 min at room temperature and the upper phase was collected and further separated by Ficoll as described above. The neutrophil fraction was collected and washed with HBSS buffer and then pelleted again. […]

[2] = system: Human Microvascular Endothelial Cells (HMVEC); assay: HMVEC chemotaxis (cell migration assay); type: cell-based; conditions: 3.5 μg purified recombinant DEK vs purification buffer control
Procedure: Cell migration assay (See, e.g., Koch et al., Arthritis & Rheumatism 44: 31-40, (2001)) was performed with either 3.5 μg of purified, recombinant DEK diluted in PBS, or with just the purification buffer diluted in PBS (control). Nine high-power fields were assayed per sample, and results expressed as the number of cells migrating per well. Error bars show the mean deviation of two separate experiments (*p=0.0249).

B1: DEK: full-length recombinant DEK protein produced in baculovirus (protein, UniProt P35659 1-375, looked up)
chain: MSASAPAAEGEGTPTQPASEKEPEMPGPREESEEEEDEDDEEEEEEEKEKSLIVEGKREKKKVERLTMQVSSLQREPFTIAQGKGQKLCEIERIHFFLSKKKTDELRNLHKLLYNRPGTVSSLKKNVGQFSGFPFEKGSVQYKKKEEMLKKFRNAMLKSICEVLDLERSGVNSELVKRILNFLMHPKPSGKPLPKSKKTCSKGSKKERNSSGMARKAKRTKCPEILSDESSSDEDEKKNKEESSDDEDKESEEEPPKKTAKREKPKQKATSKSKKSVKSANVKKADSSTTKKNQNSSKKESESEDSSDDEPLIKKLKKPPTDEELKETIKKLLASANLEEVTMKQICKKVYENYPTYDLTERKDFIKTTVKELIS
modifications: full-length
notes: full-length recombinant DEK protein produced in baculovirus
- neutrophil migration into the peritoneum (neutrophils): significantly increased the infiltration of neutrophils; also recorded: significantly induces neutrophil migration
- uptake by cells (MDM and HeLa cells): can be taken up
- induction of DNA supercoiling (circular SV-40 DNA): induced supercoiling
- neutrophil migration toward DEK [1]: statistically significant; also recorded: specifically migrate toward DEK in a dose-dependent manner
- endothelial cell chemotaxis [2]: does attract endothelial cells

From patent US8652467B2, “Dek protein compositions and methods of using the same” (The Regents of the University of Michigan, priority 2005, dated 2014)
